Measured values: patent publication US12622945B2, “Hard tissue therapeutics” (OrthoTrophix, Inc., priority 2020, dated 2026)
Where no end group is shown, it is not given here.

Key:
human and rat bone cells = conditions: human and rat/murine orthologues; cited from earlier work
integrin αvβ3 = biological target: T1, integrin αvβ3 (Homo sapiens, UniProt P05106+P06756); experiment: Competition ELISA with biotinylated RGD-Knottin, integrin αvβ3; type: binding
T1 construct: purchased R&D Systems
Experimental: All integrins used in this study contained the human sequence.
The binding assay was conducted as a competition ELISA using biotinylated Knottin and unlabeled peptides.
Methods were carried out as follows, as described by Bernhagen 2017.
Incubation and washing buffers were prepared using standard protocols. Recombinant human integrins were purchased from R&D Systems (Minneapolis, U.S.A.). Strep-HRP (Streptavidin-Horseradish Peroxidase conjugate, Southern-Biotech, Birmingham, U.S.A.), and rabbit anti-mouse-HRP (Southern-Biotech, Birmingham, U.S.A.) were diluted 1:200-1:1000 for ELISA experiments.
All integrins were dissolved according to manufacturer's protocol and stored in 25 μL aliquots of 100 μg/mL in PBS. For coating of one 96 well plate, 2 aliquots were thawed and dissolved in 9.95 mL of cold coating buffer for a 0.5 μg/mL solution.
After coating, the plates were subsequently sealed and stored at 4° C. overnight. […]
The following washing and incubation steps were performed according to manuscript. […] Peptides, whose integrin binding strength were to be determined, were mixed in 12 different concentrations (each 3-fold dilutions) with a fixed concentration of RGD-Knottin (both in PBS, 15 min, room temperature), followed by incubation of the plates with peptide/RGD-Knottin solutions.
Substrate buffer incubation and absorbance measurements were identical to that for binding ELISA. […]

subjects with knee OA = conditions: cited from earlier work
[1] = biological target: T2, recombinant human integrin αvβ3 (human, UniProt P06756 31-992; P05106 27-718); experiment: competition ELISA; coated integrin, biotinylated RGD-Knottin as competitor (FIG. 2)
T2 construct: Bought from R&D Systems

[2] = biological target: T2, recombinant human integrin αvβ3; experiment: competition ELISA; coated integrin, biotinylated RGD-Knottin as competitor
[3] = biological target: T3, recombinant human integrin α9β1 (human, UniProt Q13797 30-981; P05556 21-728, limits assumed); experiment: initial integrin binding screen
T3 construct: Bought from R&D Systems; Named only for the initial screening

[4] = biological target: T4, recombinant human integrin α10β1 (human, UniProt O75578 23-1122; P05556 21-728, limits assumed); experiment: initial integrin binding screen
T4 construct: Bought from R&D Systems; Named only for the initial screening

[5] = biological target: T5, recombinant human integrin α5β1 (human, UniProt P08648 42-995; P05556 21-728); experiment: initial integrin binding screen
T5 construct: Bought from R&D Systems; Named only for the initial screening

[6] = biological target: T6, recombinant human integrin α6β1 (human, UniProt P23229 24-1011; P05556 21-728, limits assumed); experiment: initial integrin binding screen
T6 construct: Bought from R&D Systems; Named only for the initial screening

[7] = biological target: T7, recombinant human integrin α3β1 (human, UniProt P26006 33-991; P05556 21-728); experiment: initial integrin binding screen
T7 construct: Bought from R&D Systems; Named only for the initial screening

[8] = biological target: T8, recombinant human integrin α4β1 (human, UniProt P13612 34-970; P05556 21-728, limits assumed); experiment: initial integrin binding screen
T8 construct: Bought from R&D Systems; Named only for the initial screening

[9] = biological target: T9, recombinant human integrin αvβ8 (human, UniProt P06756 31-992; P26012 43-684); experiment: integrin binding screen / competition ELISA with RGD-Knottin
T9 construct: Bought from R&D Systems

[10] = biological target: T10, recombinant human integrin α1β1 (human, UniProt P56199 29-1141; P05556 21-728); experiment: as above
T10 construct: Bought from R&D Systems

[11] = biological target: T11, recombinant human integrin αvβ6 (human, UniProt P06756 31-992; P18564 22-707); experiment: as above
T11 construct: Bought from R&D Systems

[12] = biological target: T12, recombinant human integrin α2β1 (human, UniProt P17301 30-1132; P05556 21-728); experiment: as above
T12 construct: Bought from R&D Systems

[13] = biological target: T13, recombinant human integrin αvβ1 (human, UniProt P06756 31-992; P05556 21-728); experiment: as above
T13 construct: Bought from R&D Systems

[14] = biological target: T3, recombinant human integrin α9β1; experiment: binding study with Knottin; reference integrin αvβ3
[15] = biological target: T4, recombinant human integrin α10β1; experiment: as above
[16] = biological target: T5, recombinant human integrin α5β1; experiment: as above
[17] = biological target: T6, recombinant human integrin α6β1; experiment: as above
[18] = biological target: T7, recombinant human integrin α3β1; experiment: as above
[19] = biological target: T8, recombinant human integrin α4β1; experiment: as above
[20] = biological target: T9, recombinant human integrin αvβ8; experiment: competition ELISA with Knottin; reference integrin αvβ3
[21] = biological target: T10, recombinant human integrin α1β1; experiment: as above
[22] = biological target: T11, recombinant human integrin αvβ6; experiment: as above
[23] = biological target: T12, recombinant human integrin α2β1; experiment: as above
[24] = biological target: T13, recombinant human integrin αvβ1; experiment: as above
[25] = biological target: T2, recombinant human integrin αvβ3; experiment: competition ELISA; coated integrin, biotinylated RGD-Knottin as competitor (FIG. 4)
[26] = biological target: T9, recombinant human integrin αvβ8; experiment: competition ELISA with biotinylated RGD-Knottin on coated integrin
[27] = biological target: T10, recombinant human integrin α1β1; experiment: as above
[28] = biological target: T14, recombinant human integrin αvβ5 (human, UniProt P06756 31-992; P18084 24-719); experiment: as above
T14 construct: Bought from R&D Systems

[29] = biological target: T11, recombinant human integrin αvβ6; experiment: as above
[30] = biological target: T12, recombinant human integrin α2β1; experiment: as above
[31] = biological target: T13, recombinant human integrin αvβ1; experiment: as above

PDLLVRGDNDVPPFSGDGQHFMH [SEQ ID No: 14]
biological activities in the bone cells of the other species (human and rat bone cells): interchangeably show biological activities in the bone cells of the other species

GFQDSLDSNRQDPGTDPEKGIDF-NH2 [SEQ ID No: 15]
binding affinity (IC50) of the peptide and integrin αvβ3 (integrin αvβ3; peptide concentration giving 50% inhibition of biotinylated knottin binding, triplicate): no binding affinity within the limits of the binding assay | IC50 (integrin αvβ3; read-out: binding affinity (IC50) of the peptide and integrin αvβ3): > 3.94 mM

O=P(O)(O)C(O)(Cc1cccnc1)P(=O)(O)O [risedronate]
effects on pain (subjects with knee OA; n=2483, Bingham 2006): favoring placebo over active drug

N#Cc1c(N(CC(=O)[O-])CC(=O)[O-])sc(C(=O)[O-])c1CC(=O)[O-].[Sr+2].[Sr+2] [strontium ranelate]
risk of myocardial infarction (subjects with knee OA; in vivo): increase the risk of myocardial infarction

TDLQERGDNDISPFSGDGQPFKD-NH2 (also called human orthologue) [peptide of SEQ ID No: 10 (TPX-100)]
IC50 [1]: ~33 µg/mL | IC50 [2]: ~30 µg/mL | binding result [3]: no binding | binding result [4]: no binding | binding result [5]: no binding | binding result [6]: no binding | binding result [7]: no binding | binding result [8]: no binding | binding result [9]: no binding | binding result [10]: no binding | binding result [11]: no binding | binding result [12]: no binding | binding result [13]: no binding | fold by which the binding affinity to αvβ3 is higher than to this integrin [14]: ≥ 300 times | fold by which the binding affinity to αvβ3 is higher than to this integrin [15]: ≥ 300 times | fold by which the binding affinity to αvβ3 is higher than to this integrin [16]: ≥ 300 times | fold by which the binding affinity to αvβ3 is higher than to this integrin [17]: ≥ 300 times | fold by which the binding affinity to αvβ3 is higher than to this integrin [18]: ≥ 300 times | fold by which the binding affinity to αvβ3 is higher than to this integrin [19]: ≥ 300 times | fold by which the binding affinity to αvβ3 is higher than to this integrin [20]: ≥ 300 times | fold by which the binding affinity to αvβ3 is higher than to this integrin [21]: ≥ 300 times | fold by which the binding affinity to αvβ3 is higher than to this integrin [22]: ≥ 300 times | fold by which the binding affinity to αvβ3 is higher than to this integrin [23]: ≥ 300 times | fold by which the binding affinity to αvβ3 is higher than to this integrin [24]: ≥ 300 times

PDLQERGDNDISPFSGDGQPFKD-NH2 [peptide of SEQ ID No: 12 (canine orthologue of TPX-100)]
IC50 [25]: ~23 µg/mL | fold by which the binding affinity to αvβ3 is higher than to this integrin [14]: ≥ 300 times | fold by which the binding affinity to αvβ3 is higher than to this integrin [15]: ≥ 300 times | fold by which the binding affinity to αvβ3 is higher than to this integrin [16]: ≥ 300 times | fold by which the binding affinity to αvβ3 is higher than to this integrin [17]: ≥ 300 times | fold by which the binding affinity to αvβ3 is higher than to this integrin [18]: ≥ 300 times | fold by which the binding affinity to αvβ3 is higher than to this integrin [19]: ≥ 300 times | fold by which the binding affinity to αvβ3 is higher than to this integrin [20]: ≥ 300 times | fold by which the binding affinity to αvβ3 is higher than to this integrin [21]: ≥ 300 times | fold by which the binding affinity to αvβ3 is higher than to this integrin [22]: ≥ 300 times | fold by which the binding affinity to αvβ3 is higher than to this integrin [23]: ≥ 300 times | fold by which the binding affinity to αvβ3 is higher than to this integrin [24]: ≥ 300 times

B1: scrambled peptide of SEQ ID No: 15 (peptide)
peptide: GFQDSLDSNRQDPGTDPEKGIDF-NH2
notes: Synthetic, made on a Rink-amide resin; also called scramble peptide
binding result [26]: no binding | binding result [27]: no binding | binding result [28]: no binding | binding result [29]: no binding | binding result [30]: no binding | binding result [31]: no binding
